# Measured values published in patent publication US8865222B2, “Beta-casein assemblies for enrichment of food and beverages and methods of preparation thereof” (Technion Research and Development Foundation Ltd., priority 2008, dated 2014).
# Marks after values point to notes of the source that are not given here.
# B1: beta-casein: lyophilized bovine beta-casein (~24 kDa milk protein) self-assembled into nano-sized micelles at low or neutral pH (protein, UniProt P02666 16-224, looked up)
# Beta-casein: RELEELNVPGEIVESLSSSEESITRINKKIEKFQSEEQQQTEDELQDKIHPFAQTQSLVYPFPGPIPNSLPQNIPPLTQTPVVVPPFLQPEVMGVSKVKEAMAPKHKEMPFPKYPVEPFTESQSLTLTDVENLHLPLPLLQSWMHQPHQPLPPTVMFPPQSVLSLSQSKVLPVPQKAVPYPQRDMPIQAFLLYQEPVLGPVRGPFPIIV
# Tests used:
# Assay type in all cases: physicochemical
# [1] = Dynamic light scattering (DLS) particle size; conditions: pH 2.6, pure beta-casein, FIG. 12
# Description: The pure beta-casein micelles remain small, below 80 nm, consistent with the fact the solution remains transparent.
# The particle size distribution and the turbidity of a vitamin D loaded beta-casein micellar solutions at pH 7.0 and pH 2.5 as a function of beta-casein concentration are shown in FIGS. 15 and 16 respectively. Vitamin D concentration in this experiment was kept constant (82.5 μg/ml; 0.2 mM) and the beta-casein concentration was raised gradually from 0 to 2% by weight (0 to 0.8 mM). […] This value is relatively low and the solutions looked transparent to the human eye.
# [2] = Analytical ultracentrifugation, sedimentation equilibrium
# Description: • Cryo-TEM: Specimens were prepared in the controlled environment vitrification system (CEVS) (Bellare et al. Electron Microsc. Technique, 1988, 10; 87-111) at 24° C. and 100% relative humidity to avoid loss of volatiles. First, the solutions were incubated in the CEVS at the desired temperature for 1 h. Then, a 7 μL drop of each solution was placed on a TEM copper grid covered with a perforated carbon film (Pelco International) and blotted with filter paper to form a thin liquid film of the sample (100-200 nm thick). The thinned sample was plunged into liquid ethane at its freezing temperature (−183° C.) to form a vitrified specimen and then transferred to liquid nitrogen ([…]) for storage. The vitrified specimens were examined in a Philips CM120 transmission electron microscope operating at an accelerating voltage of 120 kV. We used an Oxford CT3500 (Oxford Instruments) cryoholder that maintained the specimens below −175° C. during sample transfer and observation. Images were recorded digitally on a cooled Gatan MultiScan 791 CCD camera using DigitalMicrograph 3.1 software (Gatan) in the low-dose imaging mode to minimize beam exposure and electron-beam radiation damage. • ITC: ITC measurements were performed with a VP-ITC calorimeter (MicroCal) at a temperature of 24° C. […] The micellar solution was injected into the reaction cell in 28 steps of 10 μL aliquots each, and the heat flow was measured. […] The average apparent molecular weight of the micelles at the various protein concentrations was calculated following methods well known in the art (The partial specific volume vj of the solute was taken to be 0.742 cm3/g3, and a solution density F of 1.0044 g/cm3 was measured). At beta-casein concentrations of 2 mg/mL and above under low pH conditions, the plot of the natural logarithm of the measured absorbance versus the square of the radius from the axis of rotation was not linear. […] The molecular weight calculated using this slope was divided by the monomer molecular weight calculated from the beta-casein amino acid sequence (24000). […]
# [3] = Isothermal titration calorimetry (ITC) demicellization of beta-casein micellar solution
# Description: • Cryo-TEM: Specimens were prepared in the controlled environment vitrification system (CEVS) (Bellare et al. Electron Microsc. Technique, 1988, 10; 87-111) at 24° C. and 100% relative humidity to avoid loss of volatiles. First, the solutions were incubated in the CEVS at the desired temperature for 1 h. Then, a 7 μL drop of each solution was placed on a TEM copper grid covered with a perforated carbon film (Pelco International) and blotted with filter paper to form a thin liquid film of the sample (100-200 nm thick). The thinned sample was plunged into liquid ethane at its freezing temperature (−183° C.) to form a vitrified specimen and then transferred to liquid nitrogen ([…]) for storage. The vitrified specimens were examined in a Philips CM120 transmission electron microscope operating at an accelerating voltage of 120 kV. We used an Oxford CT3500 (Oxford Instruments) cryoholder that maintained the specimens below −175° C. during sample transfer and observation. Images were recorded digitally on a cooled Gatan MultiScan 791 CCD camera using DigitalMicrograph 3.1 software (Gatan) in the low-dose imaging mode to minimize beam exposure and electron-beam radiation damage. • ITC: ITC measurements were performed with a VP-ITC calorimeter (MicroCal) at a temperature of 24° C. The reaction cell (V=1.43 mL) was filled with degassed solvent (lactic acid at pH 2.6, or phosphate buffer at pH 7.0). The injector-stirrer syringe (289 μL) was loaded with a beta-casein micellar solution (20 mg/mL). The micellar solution was injected into the reaction cell in 28 steps of 10 μL aliquots each, and the heat flow was measured. During the titration, the stirring speed was 310 rpm. The duration of each injection was 20 s, and the equilibration time between consecutive injections was 3 min. Such an interval was sufficient to equilibrate the reaction cell after every injection. Each experiment was performed at least three times. Calorimetric data analysis was carried out using Origin 5.0 software (MicroCal). • Analytical Ultracentrifugation: Sedimentation equilibrium experiments were performed at 24° C. using a Beckman Optima XL-A (Palo Alto, Calif.) analytical centrifuge at 6000, 10000, and 12000 rpm for the low-pH solutions and at 4000, 6000, and 8000 rpm for the pH 7.0 solutions. Data were collected at 280 nm. The beta-casein solutions were studied at concentrations ranging from 0.2 to 10.0 mg/mL at pH 2.6 and from 0.2 to 2 mg/mL at pH 7.0 and an ionic strength of 0.1. […] The average apparent molecular weight of the micelles at the various protein concentrations was calculated following methods well known in the art (The partial specific volume vj of the solute was taken to be 0.742 cm3/g3, and a solution density F of 1.0044 g/cm3 was measured). At beta-casein concentrations of 2 mg/mL and above under low pH conditions, the plot of the natural logarithm of the measured absorbance versus the square of the radius from the axis of rotation was not linear. To estimate Nagg, the limiting slope toward the outer edge of the sample cell was used to provide dln(c)/dr^2. The molecular weight calculated using this slope was divided by the monomer molecular weight calculated from the beta-casein amino acid sequence (24000).
# • Characterization of the beta-casein micelles by ITC: beta-casein micellar solution was titrated into lactic acid buffer (pH 2.6) placed in the ITC cell, and the heat flow was measured as a function of time (FIG. 6A). Three factors contribute to the exothermic enthalpy changes observed at the initial injections: micelle dilution, demicellization, and dilution of individual beta-casein molecules. The enthalpy changes decrease in magnitude as more protein is added and the concentration in the ITC cell increases. Eventually, the concentration in the cell exceeds the CMC and only micelle dilution contributes to the heat flow. […]
molecule,measurement,setting,value
B1,mean size of the assemblies,[1],below 80 nm
same,aggregation number,"[2]; pH 2.6, around the CMC",3
same,aggregation state,"[2]; pH 2.6, concentrations lower than the CMC",monomeric
same,Nagg,[2]; pH 7.0 and ionic strength 0.1,20
same,"heat of demicellization, ΔHdemic","[3]; pH 2.6, 24 °C",~-4.28 kcal/mol
same,CMC,"[3]; pH 2.6, 24 °C, ITC",1.89 mg/mL
same,CMC,"[3]; pH 2.6, 25 °C row of table, found by ITC (footnote *)",0.19* wt %
same,relative micellization cooperativity (MR),"[3]; pH 2.6, IS 0.002, 24 °C",0.14 mM
same,CMC,"[3]; pH 2.6, ITC",0.079 mM
same,"heat of demicellization, ΔHdemic",[3]; pH 7.0 and IS of 0.1,-9.687 kcal/mol
